Two molecules from patent US20060165683A1, “Methods and compositions for control of bone formation via modulation of sympathetic tone” (priority 2001, published 2006) can be followed below.

“Also recorded” adds a separate entry of the source.

The test system of series [1] is human SaOS-2 osteoblastic cells. In words: cAMP production in human SaOS-2 osteoblastic cells. Format: cell-based. To be noted: SaOS-2, 100 μM IBMX, 5 min treatment. As for the experimental part:
Primary osteoblast cultures were established as previously described (see, e.g., Ducy et al., 2000, Cell 100: 197-207) and maintained in αMEM/0.1 mg/ml ascorbic acid supplemented with 10% FBS. SaOS-2 were grown in MEM/10% FBS. For cAMP assay confluent cultures were incubated with serum free medium containing 100 μM IBMX (3-isobutyl-1-methylxanthine, Sigma) for 8 minutes before PBS, PTH(1-34) (Bachem), isoproterenol, norepinephrine, phenylephrine (Sigma) or propranolol were added for 5 min. Intracellular cAMP concentration was measured by immunoassay (R&D Systems). For gene expression analyses, primary osteoblasts were treated for 72 hours with appropriate drugs in 0.1% FBS. Hormone serum levels were quantified using immunoassays kits from Peninsula Laboratories (Insulin) or Alpco Diagnostics (leptin). Deoxypyridinoline cross-links and Creatinine were measured in morning urines using the Quidel kits. a1(I) leptin bioactivity was verified by cotransfection of 293 cells expressing ObRb with a STAT3-responsive-luc reporter construct, pSVβgal plasmid and a1(I) leptin expression vector or mock. Twenty-four hours later luciferase and β-galactosidase activities were measured. Data represents ratios of luciferase/β-galactosidase activities, and values are mean of 6 independent transfection experiments.
For a sympathetic regulation of bone formation to exist several requirements have to be fulfilled. The first one is that functional adrenergic receptors are present on osteoblasts. […] No other adrenergic receptor subtype could be detected. […] Thus, to assess the biologic relevance of the presence of β2-adrenergic receptors on osteoblasts, these cells were treated with isoproterenol, a β-adrenergic agonist, alone or in the presence of propranolol, a β-adrenergic receptor antagonist; with norepinephrine, the natural ligand of β-adrenergic receptors; with phenylephrine, an α-adrenergic agonist or with vehicle and measured cAMP production. […]
On the technique in general: Cyclic AMP is a second messenger, typically raised through Gs and lowered through Gi signalling.

For series [2], the system named is parabiosed ob/ob mice. Kind of series: Cross circulation (parabiosis) between ob/ob mice with leptin ICV in one mouse of each pair. Format: in vivo. The text has this: Cross Circulation (Parabiosis) Procedure. Following anesthesia by standard procedures, the surgery is made under adequate anesthesia and aseptic techniques. A longitudinal incision is made along one side on each mouse and skin is loosened from connective tissue. The ventral edges of the incision are joined by suture. Abdominal cavity of each mouse is opened and connected to make coelio anastomosis. Finally, the dorsal edges of the skin incision are joined. Parabiosed mice are housed in separate cages subsequently. Mice used for this procedure are syngenic to avoid immune reactions. Bone histology and histomorphometry are performed at the end of the treatment period to determine bone mass.
To determine whether the signal(s) emanating from the brain and controlling bone formation was/were of humoral nature, cross circulation (parabiosis) experiments were performed between ob/ob mice. Four weeks after establishing and verifying the cross circulation, a pump delivering leptin ICV (8 ng/h) was installed in one mouse of each parabiosed pair. […] Body weight and bone histology of the ipsilateral and contralateral mouse of each pair was analyzed four weeks later, reasoning that if leptin was using humoral means to control body weight and bone mass, both mice in each pair should respond equally well to the leptin infusion.
(§1) Wildtype (C57BL/6J) and mutant (C57BL/6J A^y/a, C57BL/6J ob/ob) mice were obtained from the Jackson laboratory and adrenal medullectomized mice from Harlan Tecklad laboratory. Dbh−/− mice were rescued as previously described (Thomas et al., 1998, Neurochem 70:2468-2476). Isoproterenol (Sigma) was injected intraperitoneally (ip) once daily for 6 weeks at 30 mg/kg (wt) or 3 mg/kg (ob/ob). Propranolol (Sigma) was added to the drinking water at a concentration of 0.5 g/l. For ICV infusion, a 28-gauge cannula (Brain infusion kit II, Alza) was implanted into the third ventricle as previously described infusing human leptin (Sigma) at 8 ng/hr or MT-II at 125 ng/hr (Phoenix Pharmaceuticals) for 28 days (see, e.g., Ducy et al., 2000, Cell 100: 197-207). The cannula was connected to an osmotic pump (Alza) placed in the dorsal subcutaneous space of the animal. For parabiosis longitudinal incisions were made in the skin and in the peritoneal cavity along one side on each mouse. Edges of the incisions were connected by suture to induce coelioanastomosis. Cross-circulation was quantified by injecting 1 ml/kg 0.25% Evans blue into the tail vein of one mouse of the parabiosed pair. After 30 min. blood was collected from both mice by retroorbital bleeding and the blood exchange rate was calculated according to standard techniques (see, e.g., Harris & Martin, 1984, Am J Physiol 247:R380-386). […] Two weeks after parabiosis a pump delivering leptin ICV in one animal of each pair was implanted. For GTG lesioning, 4-week-old C57BL/6J mice were given a single ip injection of either PBS or GTG (0.5 mg/g). For MSG lesioning, 2 day-old C57BL/6J pups were injected daily subcutaneously with either PBS or MSG (2 mg/g) for 10 days.
The next question was whether the signal(s) emanating from the hypothalamic antiosteogenic network was/were of humoral or of neuronal nature. To that end, cross-circulation (parabiosis) experiments between ob/ob animals (that have no circulating leptin) were relied upon. […] Four weeks later the animals were sacrificed and analyzed.

For series [3], the system named is A^y/a mice. In words: Leptin ICV infusion in A^y/a mice. Format: in vivo, mouse. The method, then: as §1
Where [4] appears, read: contralateral parabiosed partner.
The mark [5] stands for this setting: ipsilateral mouse, 8 ng/h, four weeks.

Consider `CC(C)NCC(O)c1ccc(O)c(O)c1` (stereo not drawn) [isoproterenol], for which, in series [1], the cAMP production entry was “induced”.

B1: leptin: polypeptide hormone, product of the ob gene; human leptin (Sigma) infused ICV (protein)
chain: VPIQKVQDDTKTLIKTIVTRINDISHTQSVSAKQRVTGLDFIPGLHPILSLSKMDQTLAVYQQVLTSLPSQNVLQIANDLENLRDLLHLLAFSKSCSLPQTSGLQKPESLDGVLEASLYSTEVVALSRLQGSLQDILQQLDVSPEC
Regarding B1, in series [2] (setting [4]), the “body weight loss in the contralateral mouse” value is “never observed” and the “bone mass / bone volume of the contralateral mouse” value was “never observed; also recorded: no modification”. In series [2] (setting [5]), the “body weight of the ob/ob mouse receiving leptin ICV” value is given as “dropped considerably” and the “bone mass / bone volume of the ob/ob mouse receiving leptin ICV” value is “dropped considerably; also recorded: dropped significantly”. Further, in series [2] (parabiosed ob/ob mice after ICV infusion), the “leptin in plasma / serum (leakage into the general circulation)” value was “absence of measurable leptin”. In addition, the body weight entry in series [3] (ICV infusion) is listed as “without affecting”. In series [3] (long-term ICV infusion), the bone formation rate entry is given as “decrease” and the “bone mass / bone volume” value was “significant decrease; also recorded: decreased”.
